Where a chain is given by its changes, count along the chain named. Numbers in names are those of the source.
T1: 6XHis-tagged TgIST-R2 (G365-S420)
T1 chain: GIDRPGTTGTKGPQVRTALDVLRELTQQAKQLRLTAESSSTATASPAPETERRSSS

B1: STAT1cc (STAT1 core fragment, A656C and N658C, locked dimer), tag-free, P42224 M654A (protein)
chain: STVMLDKQKELDSKVRNVKDKVMCIEHEIKSLEDLQDEYDFKCKTLQNREHETNGVAKSDQKQEQLLLKKMYLMLDNKRKEVVHKIIELLNVTELTQNALINDELVEWKRRQQSACIGGPPNACLDQLQNWFTIVAESLQQVRQQLKKLEELEQKYTYEHDPITKNKQVLWDRTFSLFQQLIQSSFVVERQPCMPTHPQRPLVLKTGVQFTVKLRLLVKLQELNYNLKVKVLFDKDVNERNTVKGFRKFNILGTHTKVMNMEESTNGSLAAEFRHLQLKEQKNAGTRTNEGPLIVTEELHSLSFETQLCQPGLVIDLETTSLPVVVISNVSQLPSGWASILWYNMLVAEPRNLSFFLTPPCARWAQLSEVLSWQFSSVTKRGLNVDQLNMLGEKLLGPNASPDGLIPWTRFCKENINDKNFPFWLWIESILELIKKHLLPLWNDGCIMGFISKERERALLKDQQPGTFLLRFSESSREGAITFTWVERSQNGGEPDFHAVEPYTKKELSAVTFPDIIRNYKVAACECIPENPLKYLYPNIDKDHAFGKYYSRPKEAPEPMELDGPKGTGYIKTELISVSEVH
B2: STAT1cc (STAT1 core fragment, A656C and N658C, locked dimer), tag-free, P42224 E618A (protein)
chain: MSQWYELQQLDSKFLEQVHQLYDDSFPMEIRQYLAQWLEKQDWEHAANDVSFATIRFHDLLSQLDDQYSRFSLENNFLLQHNIRKSKRNLQDNFQEDPIQMSMIIYSCLKEERKILENAQRFNQAQSGNIQSTVMLDKQKELDSKVRNVKDKVMCIEHEIKSLEDLQDEYDFKCKTLQNREHETNGVAKSDQKQEQLLLKKMYLMLDNKRKEVVHKIIELLNVTELTQNALINDELVEWKRRQQSACIGGPPNACLDQLQNWFTIVAESLQQVRQQLKKLEELEQKYTYEHDPITKNKQVLWDRTFSLFQQLIQSSFVVERQPCMPTHPQRPLVLKTGVQFTVKLRLLVKLQELNYNLKVKVLFDKDVNERNTVKGFRKFNILGTHTKVMNMEESTNGSLAAEFRHLQLKEQKNAGTRTNEGPLIVTEELHSLSFETQLCQPGLVIDLETTSLPVVVISNVSQLPSGWASILWYNMLVAEPRNLSFFLTPPCARWAQLSEVLSWQFSSVTKRGLNVDQLNMLGEKLLGPNASPDGLIPWTRFCKENINDKNFPFWLWIESILELIKKHLLPLWNDGCIMGFISKERERALLKDQQPGTFLLRFSESSREGAITFTWVARSQNGGEPDFHAVEPYTKKELSAVTFPDIIRNYKVMAAENIPENPLKYLYPNIDKDHAFGKYYSRPKEAPEPMELDGPKGTGYIKTELISVSEVHPSRLQTTDNLLPMSPEEFDEVSRIVGSVEFDSMMNTV
B3: STAT1cc (STAT1 core fragment, A656C and N658C, locked dimer), tag-free, P42224 D593A (protein)
chain: B2 chain with D593A, A618E
B4: STAT1cc (STAT1 core fragment, A656C and N658C, locked dimer), tag-free, P42224 Q621W (protein)
chain: B2 chain with A618E, Q621W
B5: STAT1cc (STAT1 core fragment, A656C and N658C, locked dimer), tag-free, P42224 Q621A (protein)
chain: B2 chain with A618E, Q621A
B6: STAT1cc (STAT1 core fragment, A656C and N658C, locked dimer), tag-free, P42224 D672A (protein)
chain: B2 chain with A618E, D672A
B7: STAT1cc (STAT1 core fragment, A656C and N658C, locked dimer), tag-free, P42224 N662K (protein)
chain: B2 chain with A618E, N662K

Target: T1, 6XHis-tagged TgIST-R2 (G365-S420)
Assay: nickel affinity copurification, SDS-PAGE, Coomassie blue band quantification
Settings: chain shown with the change;; parent: est. 1.0; read off a plot

Binder	ratio to parent
B1	0.04
B2	0.82
B3	0.9
B4	1.1
B5	0.87
B6	0.93
B7	0.26

— PMC9279507
